Columns and labels:
[1] = test system: pY99-H3 marks at SLC6A4 promoter (5-HTTLPR) and intron 2 (VNTR); assay: ChIP with pY99-H3 antibodies and real time PCR at SLC6A4 gene in JAR cells; assay type: cell-based, human; settings: EGF treatment
Protocol: (§1) FIGS. 5A-5D show ACK1 deposits pY99-H3 epigenetic marks in SLC6A4 promoter and intron 2. (FIG. 5A) Lysates prepared from JAR cells treated with EGF ligand were subjected to immunoblotting with indicated antibodies. (FIG. 5B) Lysates prepared from JAR cells treated with EGF or AIM-100 were subjected to immunoblotting with indicated antibodies. (FIG. 5C) Total RNA was prepared from JAR cells untreated or treated with EGF ligand followed by quantitative RT-PCR using SLC6A4 and actin primers. The ratio of SLC6A4 to actin is shown. (FIG. 5D) JAR cells were treated with EGF ligand and ChIP was performed using pY99-H3 antibodies followed by quantitative PCR using primers corresponding to intron 2 (VNTR).
Applicant hypothesized that ACK1 deposits pY99-H3 epigenetic marks in promoter (5-HTTLPR) and intron 2 (VNTR) of SLC6A4 gene to regulate its transcription. To test this hypothesis, applicant performed chromatin immunoprecipitation (ChIP) with pY99-H3 antibodies followed by real time PCR for primers corresponding to promoter (5-HTTLPR) and intron 2 (VNTR) of SLC6A4 gene.

SLC6A4 mRNA = SLC6A4 mRNA expression (real time RT-PCR); assay type: cell-based, human; settings: JAR cells treated with EGF ligand
Protocol: The ratio of SLC6A4 to actin is shown. (FIG. 5D) JAR cells were treated with EGF ligand and ChIP was performed using pY99-H3 antibodies followed by quantitative PCR using primers corresponding to intron 2 (VNTR). […]
Applicant also identified for the first time that human and mouse serotonin transporter (SLC6A4 or SERT or 5-HTT) gene expression is regulated by ACK1. A novel mechanism was identified that is operational in SLC6A4 gene regulation. ACK1 deposits pY99-H3 epigenetic marks in promoter (5-HTTLPR) and intron 2 (VNTR) of SLC6A4 gene to regulate its transcription. […] Without being bound by theory, applicant believes that expression of Gabra6, Slc6a2, Slc6a4, Slc6a5 and Oxt genes as well as genes shown in Table 2 are also regulated by ACK1/pY99-H3 epigenetic activity/signaling.

[2] = test system: histone H3 Tyr99-phosphorylation (ACK1); assay: Histone H3 Tyr99-phosphorylation in JAR cells (immunoblotting); assay type: cell-based, human; settings: EGF alone
Protocol: as §1
(§2) JAR cells are human placenta-derived epithelial cells that express SLC6A4 or SERT. Applicant first assessed presence of ACK1 signaling in JAR cells by treating these cells with EGF ligand. […] ACK1 activation was also reflected in histone H3 Tyr99-phosphorylation (FIG. SA, 2nd panel).
To validate critical role of ACK1 in histone H3 Tyr99-phosphoryation, JAR cells were treated with EGF or EGF+AIM-100.

ACK1 = ACK1 activation (phosphorylation) in JAR cells, immunoblotting; assay type: cell-based, human; settings: 10 min of treatment
Protocol: as §1, §2

[3] = test system: histone H3 Tyr99-phosphorylation (ACK1); assay: Histone H3 Tyr99-phosphorylation in HEK293 cells (pY99-H3 immunoprecipitation / H3 immunoblot); assay type: cell-based; settings: HEK293 cells treated with EGF ligand
Protocol: FIGS. 3A-3E show Ack1 phosphoryltes H3 at Tyr99 residue. […] (FIG. 3B) HEK293 cells co-expressing Myc-tagged Ack1 (WT) or KD mutant ACK1 and FLAG-tagged H3 or Y99F mutant […] were serum-starved (24h) and lysates were immunoprecipitated with pY99-H3 antibodies followed by immunoblotting with FLAG antibody (top panel). (FIG. 3C) HEK293 cells were treated with EGF ligand for indicated time points. Equal amounts of lysates were immunoprecipitated pY99-H3 antibodies followed by with immunoblotting with H3 antibody (top panel). (FIG. 3D) HEK293 cells were treated with ACK1 inhibitor, AIM-100 (5 uM overnight) and/or EGF ligand 20 min. Equal amounts of lysates were immunoprecipitated pY99-H3 antibodies followed by with immunoblotting with H3 antibody (top panel). […] (FIG. 3E) HEK293 cells were treated with increasing concentrations of AIM-100 (1, 2, 3 and 5 μM). Equal amounts of lysates were immunoprecipitated pY99-H3 antibodies followed by with immunoblotting with H3 antibody (top panel).
The Tyrosine99 or Y99 site in H3 protein is evolutionarily conserved (FIG. 3A). To examine whether H3 is ACK1 kinase substrate, HEK293 cells were co-transfected with HA-tagged ACK1 and FLAG-tagged H3 or FLAG-tagged Y99F mutant H3 expressing constructs. ACK I specifically phosphorylated H3 protein, but not the Y99F mutant protein (FIG. 3B). […]

B1: EGF: EGF ligand used to activate ACK1 (protein, UniProt P01133 23-1207, looked up)
Pro-epidermal growth factor: PQHWSCPEGTLAGNGNSTCVGPAPFLIFSHGNSIFRIDTEGTNYEQLVVDAGVSVIMDFHYNEKRIYWVDLERQLLQRVFLNGSRQERVCNIEKNVSGMAINWINEEVIWSNQQEGIITVTDMKGNNSHILLSALKYPANVAVDPVERFIFWSSEVAGSLYRADLDGVGVKALLETSEKITAVSLDVLDKRLFWIQYNREGSNSLICSCDYDGGSVHISKHPTQHNLFAMSLFGDRIFYSTWKMKTIWIANKHTGKDMVRINLHSSFVPLGELKVVHPLAQPKAEDDTWEPEQKLCKLRKGNCSSTVCGQDLQSHLCMCAEGYALSRDRKYCEDVNECAFWNHGCTLGCKNTPGSYYCTCPVGFVLLPDGKRCHQLVSCPRNVSECSHDCVLTSEGPLCFCPEGSVLERDGKTCSGCSSPDNGGCSQLCVPLSPVSWECDCFPGYDLQLDEKSCAASGPQPFLLFANSQDIRHMHFDGTDYGTLLSQQMGMVYALDHDPVENKIYFAHTALKWIERANMDGSQRERLIEEGVDVPEGLAVDWIGRRFYWTDRGKSLIGRSDLNGKRSKIITKENISQPRGIAVHPMAKRLFWTDTGINPRIESSSLQGLGRLVIASSDLIWPSGITIDFLTDKLYWCDAKQSVIEMANLDGSKRRRLTQNDVGHPFAVAVFEDYVWFSDWAMPSVMRVNKRTGKDRVRLQGSMLKPSSLVVVHPLAKPGADPCLYQNGGCEHICKKRLGTAWCSCREGFMKASDGKTCLALDGHQLLAGGEVDLKNQVTPLDILSKTRVSEDNITESQHMLVAEIMVSDQDDCAPVGCSMYARCISEGEDATCQCLKGFAGDGKLCSDIDECEMGVPVCPPASSKCINTEGGYVCRCSEGYQGDGIHCLDIDECQLGEHSCGENASCTNTEGGYTCMCAGRLSEPGLICPDSTPPPHLREDDHHYSVRNSDSECPLSHDGYCLHDGVCMYIEALDKYACNCVVGYIGERCQYRDLKWWELRHAGHGQQQKVIVVAVCVVVLVMLLLLSLWGAHYYRTQKLLSKNPKNPYEESSRDVRSRRPADTEDGMSSCPQPWFVVIKEHQDLKNGGQPVAGEDGQAADGSMQPTSWRQEPQLCGMGTEQGCWIPVSSDKGSCPQVMERSFHMPSYGTQTLEGGVEKPHSLLSANPLWQQRALDPPHQMELTQ
modifications: Pro-epidermal growth factor
- deposition of pY99-H3 marks at promoter (5-HTTLPR) and intron 2 (VNTR) of SLC6A4 gene [1]: significant increase in deposition of pY99-H3 marks
- SLC6A4 mRNA levels (SLC6A4 mRNA): significant increase in SLC64A mRNA levels
- histone H3 Tyr99-phosphorylation [2]: significant upregulation of histone H3 Tyr99-phosphoryation
- ACK1 activation (phosphorylation) (ACK1): robust ACK1 activation
- endogenous H3 Tyr99-phosphorylation [3]: significant upregulation in endogenous H3 Tyr99-phosphorylation
